{"source": "paper PMC11148020", "about": "“PPIA dictates NRF2 stability to promote lung cancer progression” (Nature Communications, 2024)", "binders": {"B1": {"name": "NRF2 fragment PPIA-Binding Motif (PBM) peptide (peptide)", "peptide": "VAQVAPVD", "notes": "NRF2 residues 169-176, in the linker between the Neh4 and Neh5 domains; also called NRF2-PBM; source: synthetic peptide"}}, "target": "T1, Recombinant PPIA protein (PPIA WT) (human, UniProt P62937 1-165, 15N-labeled in the NMR experiment)", "T1 construct": "peptidylprolyl isomerase A (PPIA, CypA), called full-length PPIA for the co-crystal; free in solution for crystal and NMR; also called full-length PPIA; 15N-labeled PPIA; source: E. coli BL21 (DE3), purified (Ni-NTA; for crystallization also Superdex 75 gel filtration)", "T1 sequence (P62937 whole entry)": "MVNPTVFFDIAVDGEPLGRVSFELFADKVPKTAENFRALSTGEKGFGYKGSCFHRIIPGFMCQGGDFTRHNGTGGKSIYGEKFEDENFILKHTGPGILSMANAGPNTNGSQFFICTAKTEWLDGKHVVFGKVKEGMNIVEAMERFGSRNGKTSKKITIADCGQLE", "assay": "crystal structure; PPIA (50 mg/mL) incubated with PBM peptide (2 mM) at 4 °C for 2 h; hanging-drop co-crystallization, 25 mM Hepes, 25% PEG 3350, 5 mM TCEP, pH 7.5; 1.81 Å", "details": "both partners purified", "data": [{"binder": "B1", "values": [{"measurement": "binding result", "result": "binds"}]}]}
